Experimental data reported in article doi:10.1101/2025.07.30.667432 (bioRxiv, 2025).

Legend:
Assay in all cases: affinity purification with mass spectrometry
[1] = target: Nup57 (Saccharomyces cerevisiae (strain ATCC …, UniProt P48837))
[2] = target: Nup192 (Saccharomyces cerevisiae (strain ATCC …, UniProt P47054))
[3] = target: Nup49 (Saccharomyces cerevisiae (strain ATCC …, UniProt Q02199))
[4] = target: Nic96 (Saccharomyces cerevisiae, UniProt P34077)
[5] = target: Nsp1 (Saccharomyces cerevisiae (strain ATCC …, UniProt P14907))
[6] = target: Pom152 (Saccharomyces cerevisiae (strain ATCC …, UniProt P39685))
Chain of Pom152 (Saccharomyces cerevisiae (P39685 whole entry): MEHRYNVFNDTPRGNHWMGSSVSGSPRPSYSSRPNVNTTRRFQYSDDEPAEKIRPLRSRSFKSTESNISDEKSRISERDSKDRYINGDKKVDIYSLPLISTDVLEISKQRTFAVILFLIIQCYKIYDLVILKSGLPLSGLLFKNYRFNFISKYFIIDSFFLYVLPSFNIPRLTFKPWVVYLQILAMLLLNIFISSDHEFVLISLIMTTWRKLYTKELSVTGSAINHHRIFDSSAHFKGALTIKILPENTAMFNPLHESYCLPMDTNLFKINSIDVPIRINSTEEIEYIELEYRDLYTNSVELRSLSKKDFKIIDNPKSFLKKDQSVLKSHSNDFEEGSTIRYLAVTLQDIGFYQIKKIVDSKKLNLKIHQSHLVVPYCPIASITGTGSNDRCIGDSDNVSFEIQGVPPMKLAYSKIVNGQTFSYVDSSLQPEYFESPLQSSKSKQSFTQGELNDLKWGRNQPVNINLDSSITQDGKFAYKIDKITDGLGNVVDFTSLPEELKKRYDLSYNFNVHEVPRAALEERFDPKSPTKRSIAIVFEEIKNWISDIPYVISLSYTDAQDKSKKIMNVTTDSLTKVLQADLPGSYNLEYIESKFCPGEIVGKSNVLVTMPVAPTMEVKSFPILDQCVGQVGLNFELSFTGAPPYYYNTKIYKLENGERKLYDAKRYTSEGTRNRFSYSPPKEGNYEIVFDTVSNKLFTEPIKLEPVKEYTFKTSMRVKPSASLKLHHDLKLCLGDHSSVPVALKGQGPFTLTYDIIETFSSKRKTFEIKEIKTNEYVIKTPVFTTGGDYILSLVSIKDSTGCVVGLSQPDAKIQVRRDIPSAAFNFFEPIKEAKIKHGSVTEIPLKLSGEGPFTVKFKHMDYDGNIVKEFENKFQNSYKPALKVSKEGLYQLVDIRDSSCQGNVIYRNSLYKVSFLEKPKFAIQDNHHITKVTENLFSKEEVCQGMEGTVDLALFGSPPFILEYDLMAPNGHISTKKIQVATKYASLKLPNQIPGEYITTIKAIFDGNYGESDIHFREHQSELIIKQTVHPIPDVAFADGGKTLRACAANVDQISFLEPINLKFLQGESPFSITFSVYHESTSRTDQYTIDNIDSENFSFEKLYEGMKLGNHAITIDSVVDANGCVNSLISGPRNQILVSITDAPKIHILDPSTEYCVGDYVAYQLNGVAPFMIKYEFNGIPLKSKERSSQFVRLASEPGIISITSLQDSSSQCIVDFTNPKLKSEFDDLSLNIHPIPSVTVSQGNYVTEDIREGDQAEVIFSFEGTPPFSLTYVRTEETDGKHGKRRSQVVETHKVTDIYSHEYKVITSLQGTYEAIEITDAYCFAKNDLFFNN

[7] = target: Pom34-ZZ (Saccharomyces cerevisiae (strain ATCC …, UniProt Q12445))

Measured: binding result

Chain of Nup49 (Saccharomyces cerevisiae (Q02199 whole entry): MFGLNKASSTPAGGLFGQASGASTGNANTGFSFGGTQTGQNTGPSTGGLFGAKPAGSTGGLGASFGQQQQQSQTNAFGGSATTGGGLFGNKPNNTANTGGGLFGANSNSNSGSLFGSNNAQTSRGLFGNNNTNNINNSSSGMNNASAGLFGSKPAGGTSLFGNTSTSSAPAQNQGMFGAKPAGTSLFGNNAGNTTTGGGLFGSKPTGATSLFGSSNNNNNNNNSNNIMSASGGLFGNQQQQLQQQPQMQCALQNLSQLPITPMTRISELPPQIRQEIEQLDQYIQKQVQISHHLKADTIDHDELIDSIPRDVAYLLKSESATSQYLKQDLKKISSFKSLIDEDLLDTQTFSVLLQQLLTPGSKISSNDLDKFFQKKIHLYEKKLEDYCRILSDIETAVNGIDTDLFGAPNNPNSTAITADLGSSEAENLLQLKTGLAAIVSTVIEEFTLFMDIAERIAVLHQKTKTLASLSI
Chain of Nic96 (P34077 whole entry): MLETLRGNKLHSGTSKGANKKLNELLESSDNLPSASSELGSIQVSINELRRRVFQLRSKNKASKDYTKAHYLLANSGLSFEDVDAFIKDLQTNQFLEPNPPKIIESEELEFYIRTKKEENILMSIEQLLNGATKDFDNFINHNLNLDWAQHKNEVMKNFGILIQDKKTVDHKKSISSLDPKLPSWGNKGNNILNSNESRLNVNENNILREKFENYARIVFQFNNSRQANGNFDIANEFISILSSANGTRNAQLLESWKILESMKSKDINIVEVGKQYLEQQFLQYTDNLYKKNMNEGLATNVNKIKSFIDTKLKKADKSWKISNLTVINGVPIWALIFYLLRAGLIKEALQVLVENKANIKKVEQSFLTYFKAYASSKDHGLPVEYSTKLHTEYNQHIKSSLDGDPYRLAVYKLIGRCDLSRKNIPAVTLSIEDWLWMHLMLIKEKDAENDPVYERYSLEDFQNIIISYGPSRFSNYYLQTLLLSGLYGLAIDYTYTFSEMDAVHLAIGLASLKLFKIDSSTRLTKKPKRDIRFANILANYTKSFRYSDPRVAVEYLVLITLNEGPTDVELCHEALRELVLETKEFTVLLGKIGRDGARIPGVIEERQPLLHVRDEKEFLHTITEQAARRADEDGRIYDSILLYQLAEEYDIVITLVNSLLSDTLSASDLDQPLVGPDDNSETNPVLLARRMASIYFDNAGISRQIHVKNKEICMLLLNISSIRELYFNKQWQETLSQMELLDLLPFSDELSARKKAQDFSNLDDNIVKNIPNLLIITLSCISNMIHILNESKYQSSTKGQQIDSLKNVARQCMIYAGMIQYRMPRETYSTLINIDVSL
Chain of Nup192 (Saccharomyces cerevisiae (P47054 whole entry): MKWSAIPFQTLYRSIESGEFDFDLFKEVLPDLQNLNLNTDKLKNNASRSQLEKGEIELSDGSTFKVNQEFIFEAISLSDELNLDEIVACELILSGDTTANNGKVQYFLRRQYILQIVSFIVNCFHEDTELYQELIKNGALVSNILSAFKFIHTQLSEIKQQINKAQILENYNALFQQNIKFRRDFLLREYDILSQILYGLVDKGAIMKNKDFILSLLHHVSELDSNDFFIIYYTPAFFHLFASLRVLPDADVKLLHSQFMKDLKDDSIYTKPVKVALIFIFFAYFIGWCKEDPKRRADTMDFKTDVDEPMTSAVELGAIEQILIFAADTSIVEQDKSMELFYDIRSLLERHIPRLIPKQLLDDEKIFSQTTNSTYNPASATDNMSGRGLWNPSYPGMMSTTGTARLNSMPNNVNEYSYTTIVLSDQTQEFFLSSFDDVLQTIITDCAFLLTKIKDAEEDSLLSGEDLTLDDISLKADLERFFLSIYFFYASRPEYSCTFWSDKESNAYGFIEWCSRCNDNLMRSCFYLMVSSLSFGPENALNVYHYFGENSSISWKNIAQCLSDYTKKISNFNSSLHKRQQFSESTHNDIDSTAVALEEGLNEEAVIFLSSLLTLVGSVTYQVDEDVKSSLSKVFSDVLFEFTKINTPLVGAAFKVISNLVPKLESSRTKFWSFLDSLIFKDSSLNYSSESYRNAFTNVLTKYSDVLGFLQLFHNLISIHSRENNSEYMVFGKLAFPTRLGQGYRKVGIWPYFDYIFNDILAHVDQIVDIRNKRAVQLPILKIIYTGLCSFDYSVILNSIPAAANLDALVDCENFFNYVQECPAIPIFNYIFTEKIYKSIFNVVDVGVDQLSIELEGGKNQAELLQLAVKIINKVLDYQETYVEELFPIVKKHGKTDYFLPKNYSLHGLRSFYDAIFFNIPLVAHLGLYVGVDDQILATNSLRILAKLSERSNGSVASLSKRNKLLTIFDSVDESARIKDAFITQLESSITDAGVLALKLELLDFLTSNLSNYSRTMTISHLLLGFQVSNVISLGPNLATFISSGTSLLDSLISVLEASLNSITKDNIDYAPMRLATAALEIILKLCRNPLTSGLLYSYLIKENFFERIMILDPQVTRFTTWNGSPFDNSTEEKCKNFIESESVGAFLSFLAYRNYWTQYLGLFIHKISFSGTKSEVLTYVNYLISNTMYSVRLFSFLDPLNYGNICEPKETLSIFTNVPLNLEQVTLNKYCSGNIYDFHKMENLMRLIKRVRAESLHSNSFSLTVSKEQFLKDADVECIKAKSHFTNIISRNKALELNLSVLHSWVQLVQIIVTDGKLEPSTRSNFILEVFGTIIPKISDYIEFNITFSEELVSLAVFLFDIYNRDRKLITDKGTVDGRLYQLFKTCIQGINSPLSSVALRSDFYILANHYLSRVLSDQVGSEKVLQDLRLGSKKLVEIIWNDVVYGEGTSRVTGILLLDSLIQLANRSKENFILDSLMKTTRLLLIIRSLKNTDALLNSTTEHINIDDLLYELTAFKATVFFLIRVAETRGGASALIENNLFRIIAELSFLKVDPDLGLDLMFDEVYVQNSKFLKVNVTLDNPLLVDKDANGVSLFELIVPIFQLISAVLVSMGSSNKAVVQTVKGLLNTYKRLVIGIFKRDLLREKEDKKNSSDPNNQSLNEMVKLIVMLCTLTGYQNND
Chain of Nup57 (Saccharomyces cerevisiae (P48837 whole entry): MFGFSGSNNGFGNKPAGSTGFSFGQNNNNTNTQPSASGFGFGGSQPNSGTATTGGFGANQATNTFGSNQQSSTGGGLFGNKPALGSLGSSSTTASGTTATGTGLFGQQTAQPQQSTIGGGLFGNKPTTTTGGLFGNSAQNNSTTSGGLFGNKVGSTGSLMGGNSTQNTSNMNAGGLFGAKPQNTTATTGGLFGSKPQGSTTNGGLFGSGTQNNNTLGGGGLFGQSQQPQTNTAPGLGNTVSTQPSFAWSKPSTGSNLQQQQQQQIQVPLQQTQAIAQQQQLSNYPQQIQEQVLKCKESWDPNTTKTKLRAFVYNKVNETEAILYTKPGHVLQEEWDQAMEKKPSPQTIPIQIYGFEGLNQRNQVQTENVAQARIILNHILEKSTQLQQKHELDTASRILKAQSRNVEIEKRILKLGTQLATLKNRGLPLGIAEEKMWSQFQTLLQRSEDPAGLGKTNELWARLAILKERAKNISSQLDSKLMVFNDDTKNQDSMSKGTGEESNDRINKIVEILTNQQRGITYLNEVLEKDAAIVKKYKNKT

B1: VHH[Nic96]-ZZ (VHH)
VHH: QVQLVETGGGLVQAGGSLRLSCATSGFNFRLRTMGWYRQAPGKERELVASITSGGSTDYADSVKGRFTISRDNAKNTISLEMNSLKPDDTAVYYCNIWAPTTAAITNWGQGTQVTVSS
binds: [1] | [2] | [3] | [4] | [5] | [6]

B2: VHH[Nic96] (as expressed in the Pom34-ZZ strain) (VHH)
VHH: QVQLVETGGGLVQAGGSLRLSCATSGFNFRLRTMGWYRQAPGKERELVASITSGGSTDYADSVKGRFTISRDNAKNTISLEMNSLKPDDTAVYYCNIWAPTTAAITNWGQGTQVTVSS
binds: [7]
